Test [1] addresses T1, Fu-bc subunit protein (Dengue virus (DENV-2-like E domain II), …).
T1 chain: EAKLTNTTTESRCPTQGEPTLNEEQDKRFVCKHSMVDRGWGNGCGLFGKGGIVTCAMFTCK
Kind of test: SPR.

Test [2] has as its target T2, Fu-bc fused to the GAL4 activation domain (pGADT7) (Dengue virus (DENV-2-like E domain II), …).
T2 chain: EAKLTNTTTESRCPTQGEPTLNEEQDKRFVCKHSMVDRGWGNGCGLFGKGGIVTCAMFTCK
As to the kind of experiment: two-hybrid.

The target in test [3] is T1, Fu-bc subunit protein. Kind of test: BLI. A general note: In BLI a coated tip is dipped into the sample, and binding shifts an interference pattern.

Several values for one entry are separate records, joined by “and”; a condition that tells them apart may be missing. Equal values may be shown once.

The results in this text go back to PMC8956951 (The Journal of Biological Chemistry, 2022).

B1: scFv-Mutant9 (S227W) (scFv, V domains shown)
VH: EVKLVESGGGLVLPGGSLRLSCATSGFTFTDYYMTWVRQPPGKALEWLGFIGNKANDYTTEYSASVKGRFTISRDDSQSILYLQMSTLRAEDRATYYCATVYGNYPYFDVWGAGTTVAVSS
VL: QIVLTQSPAIMSASPGEKVTMTCSASSSVSYMHWYQQKSGTSPKIWIYESSKLASGVPVRFSGSGSGTSYSLTISSMEAEDVATYYCQQWSWHPHPLTFGAGTKLELK
Turning to B1, the binding result with Fu-bc subunit protein [1] was “binds”.

B2: scFv-mutant18 fused to the GAL4 DNA-binding domain (pGBKT7) (scFv, V domains shown)
VH: EVKLVESGGGLVLPGGSLRLSCATSGFTFTDYQMTWVRQPPGKALEWLGFIGNKANDYTTEYSASVKGRFTISRDDSQSILYLQMSTLRAEDRATYYCATVYGNWPYFDVWGAGTTVAVSS
VL: QIVLTQSPAIMSASPGEKVTMTCSASSSVSYMHWYQQKSGTSPKIWIYESSKLASGVPVRFSGSGSGTSYSLTISSMEAEDVATYYCQQWSSHPWPLTFGAGTKLELK
In the case of B2, the binding result in test [2] is recorded as “binds”.

B3: scFv-mutant15 fused to the GAL4 DNA-binding domain (pGBKT7) (scFv, V domains shown)
VH: EVKLVESGGGLVLPGGSLRLSCATSGFTFTLYYMTWVRQPPGKALEWLGFIGNKANDYTTEYSASVKGRFTISRDDSQSILYLQMSTLRAEDRATYYCATVYGNWPYFDVWGAGTTVAVSS
VL: QIVLTQSPAIMSASPGEKVTMTCSASSSVSYMHWYQQKSGTSPKIWIYESSKLASGVPVRFSGSGSGTSYSLTISSMEAEDVATYYCQQWSWHPHPLTFGAGTKLELK
Turning to B3, in test [2], the binding result was “binds”.

B4: scFv-Mutant6 (G103T) (scFv, V domains shown)
VH: EVKLVESGGGLVLPGGSLRLSCATSGFTFTDYYMTWVRQPPGKALEWLGFIGNKANDYTTEYSASVKGRFTISRDDSQSILYLQMSTLRAEDRATYYCATVYTNYPYFDVWGAGTTVAVSS
VL: QIVLTQSPAIMSASPGEKVTMTCSASSSVSYMHWYQQKSGTSPKIWIYESSKLASGVPVRFSGSGSGTSYSLTISSMEAEDVATYYCQQWSSHPHPLTFGAGTKLELK
Consider B4, for which the binding result with Fu-bc subunit protein [1] is on record as “binds”.

B5: scFv double mutant T30W, S227L (scFv, V domains shown)
VH: EVKLVESGGGLVLPGGSLRLSCATSGFTFWDYYMTWVRQPPGKALEWLGFIGNKANDYTTEYSASVKGRFTISRDDSQSILYLQMSTLRAEDRATYYCATVYGNYPYFDVWGAGTTVAVSS
VL: QIVLTQSPAIMSASPGEKVTMTCSASSSVSYMHWYQQKSGTSPKIWIYESSKLASGVPVRFSGSGSGTSYSLTISSMEAEDVATYYCQQWSLHPHPLTFGAGTKLELK
For B5, the binding result in the test with Fu-bc subunit protein [1] was “binds”.

B6: scFv-Mutant7 (Y105W) (scFv, V domains shown)
VH: EVKLVESGGGLVLPGGSLRLSCATSGFTFTDYYMTWVRQPPGKALEWLGFIGNKANDYTTEYSASVKGRFTISRDDSQSILYLQMSTLRAEDRATYYCATVYGNWPYFDVWGAGTTVAVSS
VL: QIVLTQSPAIMSASPGEKVTMTCSASSSVSYMHWYQQKSGTSPKIWIYESSKLASGVPVRFSGSGSGTSYSLTISSMEAEDVATYYCQQWSSHPHPLTFGAGTKLELK
Consider B6, for which the binding result in the test with Fu-bc subunit protein [1] is “binds”.

B7: scFv-Mutant1 (T30W) (scFv, V domains shown)
VH: EVKLVESGGGLVLPGGSLRLSCATSGFTFWDYYMTWVRQPPGKALEWLGFIGNKANDYTTEYSASVKGRFTISRDDSQSILYLQMSTLRAEDRATYYCATVYGNYPYFDVWGAGTTVAVSS
VL: QIVLTQSPAIMSASPGEKVTMTCSASSSVSYMHWYQQKSGTSPKIWIYESSKLASGVPVRFSGSGSGTSYSLTISSMEAEDVATYYCQQWSSHPHPLTFGAGTKLELK
With B7, the binding result in the test with Fu-bc subunit protein [1] is “binds”.

B8: scFv single mutant D31L (scFv, V domains shown)
VH: EVKLVESGGGLVLPGGSLRLSCATSGFTFTLYYMTWVRQPPGKALEWLGFIGNKANDYTTEYSASVKGRFTISRDDSQSILYLQMSTLRAEDRATYYCATVYGNYPYFDVWGAGTTVAVSS
VL: QIVLTQSPAIMSASPGEKVTMTCSASSSVSYMHWYQQKSGTSPKIWIYESSKLASGVPVRFSGSGSGTSYSLTISSMEAEDVATYYCQQWSSHPHPLTFGAGTKLELK
As to B8, in the test with Fu-bc subunit protein [1], the binding result is recorded as “binds”.

B9: scFv-mutant15 (D31L, Y105W, S227W) (scFv, V domains shown)
VH: EVKLVESGGGLVLPGGSLRLSCATSGFTFTLYYMTWVRQPPGKALEWLGFIGNKANDYTTEYSASVKGRFTISRDDSQSILYLQMSTLRAEDRATYYCATVYGNWPYFDVWGAGTTVAVSS
VL: QIVLTQSPAIMSASPGEKVTMTCSASSSVSYMHWYQQKSGTSPKIWIYESSKLASGVPVRFSGSGSGTSYSLTISSMEAEDVATYYCQQWSWHPHPLTFGAGTKLELK
Usually Kd stands for the equilibrium constant for the complex coming apart. Higher therefore signals a looser complex. Turning to B9, the Kd with Fu-bc subunit protein [3] is 21 ± 11 nM; with Fu-bc subunit protein [1], 24 nM and 20 to 52 nM.

B10: scFv single mutant D31F (scFv, V domains shown)
VH: EVKLVESGGGLVLPGGSLRLSCATSGFTFTFYYMTWVRQPPGKALEWLGFIGNKANDYTTEYSASVKGRFTISRDDSQSILYLQMSTLRAEDRATYYCATVYGNYPYFDVWGAGTTVAVSS
VL: QIVLTQSPAIMSASPGEKVTMTCSASSSVSYMHWYQQKSGTSPKIWIYESSKLASGVPVRFSGSGSGTSYSLTISSMEAEDVATYYCQQWSSHPHPLTFGAGTKLELK
For B10, in the test with Fu-bc subunit protein [1], the binding result is reported as “binds”.

B11: scFv-mutant17 (Y33Q, G103T, S227L) (scFv, V domains shown)
VH: EVKLVESGGGLVLPGGSLRLSCATSGFTFTDYQMTWVRQPPGKALEWLGFIGNKANDYTTEYSASVKGRFTISRDDSQSILYLQMSTLRAEDRATYYCATVYTNYPYFDVWGAGTTVAVSS
VL: QIVLTQSPAIMSASPGEKVTMTCSASSSVSYMHWYQQKSGTSPKIWIYESSKLASGVPVRFSGSGSGTSYSLTISSMEAEDVATYYCQQWSLHPHPLTFGAGTKLELK
On to B11, for which the dissociation constant (Kd) with Fu-bc subunit protein [3] turned out to be 31 ± 14 nM; with Fu-bc subunit protein [1], 27 ± 11 nM.

B12: scFv-Mutant8 (S227L) (scFv, V domains shown)
VH: EVKLVESGGGLVLPGGSLRLSCATSGFTFTDYYMTWVRQPPGKALEWLGFIGNKANDYTTEYSASVKGRFTISRDDSQSILYLQMSTLRAEDRATYYCATVYGNYPYFDVWGAGTTVAVSS
VL: QIVLTQSPAIMSASPGEKVTMTCSASSSVSYMHWYQQKSGTSPKIWIYESSKLASGVPVRFSGSGSGTSYSLTISSMEAEDVATYYCQQWSLHPHPLTFGAGTKLELK
Take B12: the binding result with Fu-bc subunit protein [1] is on record as “binds”.

B13: scFv-mutant17 fused to the GAL4 DNA-binding domain (pGBKT7) (scFv, V domains shown)
VH: EVKLVESGGGLVLPGGSLRLSCATSGFTFTDYQMTWVRQPPGKALEWLGFIGNKANDYTTEYSASVKGRFTISRDDSQSILYLQMSTLRAEDRATYYCATVYTNYPYFDVWGAGTTVAVSS
VL: QIVLTQSPAIMSASPGEKVTMTCSASSSVSYMHWYQQKSGTSPKIWIYESSKLASGVPVRFSGSGSGTSYSLTISSMEAEDVATYYCQQWSLHPHPLTFGAGTKLELK
Take B13: the binding result in test [2] is reported as “binds”.

B14: scFv-mutant18 (Y33Q, Y105W, H230W) (scFv, V domains shown)
VH: EVKLVESGGGLVLPGGSLRLSCATSGFTFTDYQMTWVRQPPGKALEWLGFIGNKANDYTTEYSASVKGRFTISRDDSQSILYLQMSTLRAEDRATYYCATVYGNWPYFDVWGAGTTVAVSS
VL: QIVLTQSPAIMSASPGEKVTMTCSASSSVSYMHWYQQKSGTSPKIWIYESSKLASGVPVRFSGSGSGTSYSLTISSMEAEDVATYYCQQWSSHPWPLTFGAGTKLELK
On to B14, for which the affinity with Fu-bc subunit protein [3], expressed as Kd, was 310 ± 35 nM. In addition, the “fold change in affinity against the WT” value with Fu-bc subunit protein [1] was approximately 7 fold.

B15: scFv-mutant16 fused to the GAL4 DNA-binding domain (pGBKT7) (scFv, V domains shown)
VH: EVKLVESGGGLVLPGGSLRLSCATSGFTFWDYQMTWVRQPPGKALEWLGFIGNKANDYTTEYSASVKGRFTISRDDSQSILYLQMSTLRAEDRATYYCATVYGNYPYFDVWGAGTTVAVSS
VL: QIVLTQSPAIMSASPGEKVTMTCSASSSVSYMHWYQQKSGTSPKIWIYESSKLASGVPVRFSGSGSGTSYSLTISSMEAEDVATYYCQQWSWHPHPLTFGAGTKLELK
With B15, the binding result in test [2] is given as “binds”.

B16: scFv-mutant16 (T30W, Y33Q, S227W) (scFv, V domains shown)
VH: EVKLVESGGGLVLPGGSLRLSCATSGFTFWDYQMTWVRQPPGKALEWLGFIGNKANDYTTEYSASVKGRFTISRDDSQSILYLQMSTLRAEDRATYYCATVYGNYPYFDVWGAGTTVAVSS
VL: QIVLTQSPAIMSASPGEKVTMTCSASSSVSYMHWYQQKSGTSPKIWIYESSKLASGVPVRFSGSGSGTSYSLTISSMEAEDVATYYCQQWSWHPHPLTFGAGTKLELK
Consider B16, for which the equilibrium dissociation constant (Kd) is 47 ± 19 nM with Fu-bc subunit protein [3] and 52 ± 17 nM with Fu-bc subunit protein [1].

B17: scFv-Mutant5 (Y33Q) (scFv, V domains shown)
VH: EVKLVESGGGLVLPGGSLRLSCATSGFTFTDYQMTWVRQPPGKALEWLGFIGNKANDYTTEYSASVKGRFTISRDDSQSILYLQMSTLRAEDRATYYCATVYGNYPYFDVWGAGTTVAVSS
VL: QIVLTQSPAIMSASPGEKVTMTCSASSSVSYMHWYQQKSGTSPKIWIYESSKLASGVPVRFSGSGSGTSYSLTISSMEAEDVATYYCQQWSSHPHPLTFGAGTKLELK
Turning to B17, binding with Fu-bc subunit protein [1] was characterised by a dissociation constant (Kd) of 302 ± 15 nM.

B18: scFv double mutant12 (T30W, S227W) (scFv, V domains shown)
VH: EVKLVESGGGLVLPGGSLRLSCATSGFTFWDYYMTWVRQPPGKALEWLGFIGNKANDYTTEYSASVKGRFTISRDDSQSILYLQMSTLRAEDRATYYCATVYGNYPYFDVWGAGTTVAVSS
VL: QIVLTQSPAIMSASPGEKVTMTCSASSSVSYMHWYQQKSGTSPKIWIYESSKLASGVPVRFSGSGSGTSYSLTISSMEAEDVATYYCQQWSWHPHPLTFGAGTKLELK
For the molecule B18, the binding result in the test with Fu-bc subunit protein [1] is on record as “binds”.

B19: scFv double mutant13 (Y33Q, G103T) (scFv, V domains shown)
VH: EVKLVESGGGLVLPGGSLRLSCATSGFTFTDYQMTWVRQPPGKALEWLGFIGNKANDYTTEYSASVKGRFTISRDDSQSILYLQMSTLRAEDRATYYCATVYTNYPYFDVWGAGTTVAVSS
VL: QIVLTQSPAIMSASPGEKVTMTCSASSSVSYMHWYQQKSGTSPKIWIYESSKLASGVPVRFSGSGSGTSYSLTISSMEAEDVATYYCQQWSSHPHPLTFGAGTKLELK
Turning to B19, the “fold change in affinity against the WT” value with Fu-bc subunit protein [1] amounted to 45 fold.
